From article PMC6814019 (Molecular cell, 2019)
“And” between values parts separate entries of the source, which are not always exact repeats. Equal entries are not always repeated.

Biological target: the molecule itself
Experiment: native MS

B1: C. elegans MORC-1 (8x-His-MBP-CeMORC) (natural protein, UniProt Q23243 1-845, looked up)
chain: MPNDTNGDDYKKLEKASVNLNFLKSNSHTHIGPLSAIAELVDNAYDADARDLHIDFLDINNEQFLELRDDGLGMAREEALHAITFGHSAKCSYKIGRYGNGLKSGAFHLGRELLLVTKKDGIITALLISHRFHEDQGLTNSVFVPCPSFDLDGIPICQTESEKDRFNLEMKIIGKYAPLGSRTLAELADKITGSTGTIIIIGNLRRSVTGELAINTTKDPTDIIVDSGEENKPWRESLRKYLEFIYLKPRMRIHVRGEQVLPKRISENWIAKKQQLISGDQFTAAYNKILDEKNETVKKCEEEKALVMSEIGGTNYTSVRREDRANQKSLRLRVDTSQKNLDSAIADRDAFKKEGKSEKSFHLNMGIETKDRSNNGIHFYINNRLILWGNKEAKFFSKFANSIGISMFLSLDYSLFSAAQNKQGFDHVKDFQVLVRKCNDALRDYSMYLEKSWIPTHLKNTWNVRIYEGDDVWAVLWGVYGYNNTTSTTCVQTHDSARDQVMWTTCGIWKLCQMCRTWIKASRPNEIVGSNDDFFCCENVNHHGCRTIVAEDNDFSKLPEKYDHILPQKRLTNSAPSSSDSQNSIRSASSCSSSSRLLNVAKIESHERIHSSTGGHRLGESFSTTSVKMEPIPNNAHDSHIAEVQRRHSTGRAISPAVSEISRRAGTAPSSQLDMIMGEESDESQEALTIRAPRQRAKRPIERVSRRNRRDQSDDDSDSENEERYATAPKKSKVKGKAVVRAPKMTREKWLEEMLNQFLTAHGEQPLPKNGQRDFDPTNIVEQTSRRNFKNNQRIVDAQQAIMRQIGSVLDHLKRNPTHNFKIPASGTVEEKLKNIEHQIKGKKK
stoichiometry N: 2 and 3 and 4
